In US20190083585:

Key:
[1] = system: fluorescently quenched α-gliadin hexapeptide analogue QXL520-PQPQLP-K(5-FAM)-NH2
[2] = system: T1, immunodominant α9-gliadin peptide QLQPFPQPQLPY
T1 sequence: QLQPFPQPQLPY

glutamine-specific endoprotease EP-B2 (native), sequence (chain, as listed by the source): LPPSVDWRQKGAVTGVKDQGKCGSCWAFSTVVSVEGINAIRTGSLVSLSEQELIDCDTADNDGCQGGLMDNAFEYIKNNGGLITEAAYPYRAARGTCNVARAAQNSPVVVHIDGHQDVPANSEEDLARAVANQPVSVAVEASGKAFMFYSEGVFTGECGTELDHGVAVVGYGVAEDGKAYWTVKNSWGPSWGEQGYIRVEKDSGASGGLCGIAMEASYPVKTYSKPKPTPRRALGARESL

Row | Substance | activity at pH 4 [1] | activity (Suc-APR-pNA) | activity (Suc-APQ-pNA) | activity (Suc-APE-pNA) | activity (Suc-AQP-pNA) | catalytic efficiency at pH 4 [1] [M^-1s^-1] | fold lower level of activity than KumaMax [1] | catalytic activity at pH 4 (Suc-APR-pNA) | degradation of the peptide after 50 minutes (LC-MS, pH 4, 37° C.) [2] | catalytic activity at pH 4 (Suc-APQ-pNA) | catalytic activity at pH 4 (Suc-APE-pNA) | catalytic activity at pH 4 (Suc-AQP-pNA) | catalytic efficiency at pH 7 (Suc-AQP-pNA) [M^-1s^-1]
1 | glutamine-specific endoprotease EP-B2 (native) | only very low levels of activity were detected | no activity | no activity | no activity | no activity |  |  |  |  |  |  |  | 
2 | prolyl endopeptidase SC PEP (native) |  |  |  |  |  | 1.6 | roughly 350-fold lower level of activity on this substrate than KumaMax | did not exhibit any significant activity | no significant degradation of the peptide was observed | did not exhibit any significant activity | did not exhibit any significant activity | did not exhibit any significant activity | 2390
